From US12194082B2, “Compositions and methods for treatment of homocystinuria” (THE REGENTS OF THE UNIVERSITY OF COLORADO, priority 2016, dated 2025)

Columns and labels:
Hcy, Cth, Cys [1] = assay: Plasma metabolites in surviving treated KO mice (trough and peak); type: in vivo; settings: 7.5 mg/kg 3x weekly
Description: Plasma metabolites homocysteine, cystathionine and cysteine were determined by stable-isotope-dilution liquid chromatography mass spectrometry as previously described in (Allen et al., 1993, Metabolism, 42: 1448-1460). Measurements of total non-protein bound homocysteine and other aminothiols as well as of amino acids in tissue were performed as described in (Maclean et al., 2010b. Mol. Genet. Metab. 101, 153-162). Metabolites were determined by stable-isotope-dilution liquid chromatography mass spectrometry.
Metabolite levels in surviving KO mice at age of about 4-5 weeks were measured after a weekend washout (trough) and 24 hours after the last injection (peak) using the experimental procedure in Example 1.

Hcy, Cth, Cys [2] = assay: Plasma metabolites in KO mice of the DEXA study; type: in vivo
Description: In 20NHS PEG-htCBS C15S-treated KO mice, the plasma levels of Hcy, Cth, and Cys were measured biweekly over the course of the study and are shown in FIG. 16F. […] The level of Cys (top line) normalized with the treatment from less than 100 μM at day […] to about 200 μM at day 45 and sustained over the course of the study. The level of Cth (bottom line) oscillated around 50 μM throughout the duration of the study.
Plasma metabolites were determined using the same mice/groups as described above. The end-point levels of metabolites Hcy, Cth, Cys, and Met were determined 24 hours after the last injection to the 20NHS PEG-htCBS C15S-treated KO mice (right bar for each metabolite) and compared with untreated healthy +/− (left bar) and affected −/− KO mice (middle bar), as shown in FIG. 16G. Table 20 provides the P-values used to determine significance for the differences in metabolite levels in the treated group compared to the two control groups.

Hcy, Cth, Cys, and Met = assay: Plasma metabolites in I278T mice of the DEXA study; type: in vivo; settings: continuous long-term administration
Description: Plasma metabolites were determined in the same mice/groups as described above and compared to each other. The left bar represents the level of metabolite for +/− healthy controls, and the middle bar represents the level of metabolite for −/− affected controls. The levels of each metabolite in 20NHS PEG-htCBS C15S-treated mice is represented by the right bar.

[3] = LC/MS/MS C15S activity assay of monkey plasma samples; type: in vivo, cynomolgus monkey
Source text: The bioanalytical method developed using LC/MS/MS for the determination of cystathionine M+4 as product of the CBS activity using cystathionine M+8 (^13C2D6) as an internal standard has been developed and validated for both monkey and human plasma samples and thus can be used to determine CBS activity in samples from pharmacokinetic and toxicology studies as well as clinical trials. The enzymatic assay was essentially performed as described in Example 1 with the following modifications. Deuterated D,L-homocysteine M+4 was used to initiate the reaction with unlabeled L-serine in the reaction mixture. After 30 min incubation at 37° C., the enzymatic reaction was stopped by acidification using 6N HCl and labeled product of the reaction (cystathionine M+4) was extracted using EZ:faast kit (Phenomenex, USA). Briefly, 50 μl of sample (calibration standard, QC sample or enzymatic reaction) was mixed in tube on ice and protected from light with 100 μl of internal standard solution (cystathionine M+8, 0.25 ng/μl) and 250 μl water. The mix was extracted with MCX cartridge columns (Waters). Eluted medium (6N ammonia in methanol) was evaporated to dryness at 45° C. The dry residue was dissolved in eluent medium of the EZ:faast kit, derivatized and liquid-liquid extracted following the kit manufacturer's protocol. The solid phase extraction was automatized with extraction plates to increase throughput and save time. Measurable concentrations of cystathionine M+4 were observed regardless of origin of the enzyme (htCBS C15S or C15S/ME-200GS present in plasma samples or controls or traces of endogenous monkey/human CBS in plasma samples). Much attention was paid to the calibration range since the incurred determinations were in the higher part of the concentration range qualified (5.00 to 1500 nM).
Tables 12-14 below show the comparison of C15S/ME-200GS specific activity determined by LC/MS/MS using D,L-homocysteine M+4 as a substrate and by radiometric assay using L-[…] as a substrate. The enzyme's specific activity is presented in mU/μl. The “n.d.” stands for “not determined”.

## 20NHS PEG-htCBS C15S: htCBS C15S PEGylated with ME-200GS PEG (20 kDa linear NHS ester-activated PEG)
Hcy, Cth, Cys [1]; 24 hours post-dose
  plasma Cys: 176 ± 6 µM
  plasma Hcy: 96 ± 8 µM
Hcy, Cth, Cys [1]; 72 hours post-dose
  plasma Cys: 106 ± 6 µM
  plasma Hcy: 179 ± 10 µM
Hcy, Cth, Cys [2]; during treatment, from about 180 μM
  plasma Hcy: about 90 μM
Hcy, Cth, Cys [2]; during treatment, from less than 100 μM
  plasma Cys: about 200 μM
Hcy, Cth, Cys [2]; throughout the study
  plasma Cth: around 50 μM
Hcy, Cth, Cys, and Met
  Hcy, Cth, Cys and Met plasma levels vs untreated −/− mice: significantly improved
[3]; single IV 2 mg/kg, 0.083 h
  specific activity in plasma, LC/MS/MS assay: 88.865 mU/μl
[3]; single IV 2 mg/kg, 0.167 h
  specific activity in plasma, LC/MS/MS assay: 81.065 mU/μl
[3]; single IV 2 mg/kg, 0.25 h
  specific activity in plasma, LC/MS/MS assay: 80.315 mU/μl
[3]; single IV 2 mg/kg, 0.5 h
  specific activity in plasma, LC/MS/MS assay: 81.815 mU/μl
[3]; single IV 2 mg/kg, 1 h
  specific activity in plasma, LC/MS/MS assay: 75.415 mU/μl
[3]; single IV 2 mg/kg, 2 h
  specific activity in plasma, LC/MS/MS assay: 71.765 mU/μl
[3]; single IV 2 mg/kg, 4 h
  specific activity in plasma, LC/MS/MS assay: 67.415 mU/μl
[3]; single IV 2 mg/kg, 8 h
  specific activity in plasma, LC/MS/MS assay: 61.715 mU/μl
[3]; single IV 2 mg/kg, 24 h
  specific activity in plasma, LC/MS/MS assay: 47.815 mU/μl
[3]; single IV 2 mg/kg, 72 h
  specific activity in plasma, LC/MS/MS assay: 28.915 mU/μl
[3]; single IV 2 mg/kg, 120 h
  specific activity in plasma, LC/MS/MS assay: 17.180 mU/μl
[3]; single IV 2 mg/kg, 192 h
  specific activity in plasma, LC/MS/MS assay: 8.490 mU/μl
[3]; single SC 2 mg/kg, 2 h
  specific activity in plasma, LC/MS/MS assay: 6.479 mU/μl
[3]; single SC 2 mg/kg, 4 h
  specific activity in plasma, LC/MS/MS assay: 11.108 mU/μl
[3]; single SC 2 mg/kg, 8 h
  specific activity in plasma, LC/MS/MS assay: 19.913 mU/μl
[3]; single SC 2 mg/kg, 48 h
  specific activity in plasma, LC/MS/MS assay: 32.538 mU/μl
[3]; single SC 2 mg/kg, 72 h
  specific activity in plasma, LC/MS/MS assay: 27.888 mU/μl
[3]; single SC 2 mg/kg, 96 h
  specific activity in plasma, LC/MS/MS assay: 20.768 mU/μl
[3]; single SC 2 mg/kg, 120 h
  specific activity in plasma, LC/MS/MS assay: 16.958 mU/μl
[3]; single SC 2 mg/kg, 192 h
  specific activity in plasma, LC/MS/MS assay: 9.063 mU/μl
[3]; single SC 2 mg/kg, 240 h
  specific activity in plasma, LC/MS/MS assay: 5.908 mU/μl
[3]; single SC 2 mg/kg, 336 h
  specific activity in plasma, LC/MS/MS assay: 2.273 mU/μl
[3]; single SC 6 mg/kg, 1 h
  specific activity in plasma, LC/MS/MS assay: 3.065 mU/μl
[3]; single SC 6 mg/kg, 2 h
  specific activity in plasma, LC/MS/MS assay: 7.640 mU/μl
[3]; single SC 6 mg/kg, 4 h
  specific activity in plasma, LC/MS/MS assay: 18.365 mU/μl
[3]; single SC 6 mg/kg, 8 h
  specific activity in plasma, LC/MS/MS assay: 41.090 mU/μl
[3]; single SC 6 mg/kg, 24 h
  specific activity in plasma, LC/MS/MS assay: 85.190 mU/μl
[3]; single SC 6 mg/kg, 48 h
  specific activity in plasma, LC/MS/MS assay: 86.090 mU/μl
[3]; single SC 6 mg/kg, 72 h
  specific activity in plasma, LC/MS/MS assay: 74.840 mU/μl
[3]; single SC 6 mg/kg, 96 h
  specific activity in plasma, LC/MS/MS assay: 59.940 mU/μl
[3]; single SC 6 mg/kg, 120 h
  specific activity in plasma, LC/MS/MS assay: 56.340 mU/μl
[3]; single SC 6 mg/kg, 192 h
  specific activity in plasma, LC/MS/MS assay: 24.190 mU/μl
[3]; single SC 6 mg/kg, 240 h
  specific activity in plasma, LC/MS/MS assay: 14.440 mU/μl
[3]; single SC 6 mg/kg, 336 h
  specific activity in plasma, LC/MS/MS assay: 4.784 mU/μl
